From patent publication US20250144178A1 (KANAPH THERAPEUTICS, published 2025)
Blank lines part the entries; values can stand above or below the binder they belong to.

Assays:
[1] = target: T1, recombinant human FAP (human, UniProt Q12884 26-760); assay: SPR, fusion protein captured by anti-human IgG (Fc) on a CM5 chip, hFAP his as analyte 0.78125-50 nM, 1:1 binding model
T1 construct: Soluble analyte in SPR; The description calls FAP a homodimer; also called rhFAP
T1 sequence (looked up): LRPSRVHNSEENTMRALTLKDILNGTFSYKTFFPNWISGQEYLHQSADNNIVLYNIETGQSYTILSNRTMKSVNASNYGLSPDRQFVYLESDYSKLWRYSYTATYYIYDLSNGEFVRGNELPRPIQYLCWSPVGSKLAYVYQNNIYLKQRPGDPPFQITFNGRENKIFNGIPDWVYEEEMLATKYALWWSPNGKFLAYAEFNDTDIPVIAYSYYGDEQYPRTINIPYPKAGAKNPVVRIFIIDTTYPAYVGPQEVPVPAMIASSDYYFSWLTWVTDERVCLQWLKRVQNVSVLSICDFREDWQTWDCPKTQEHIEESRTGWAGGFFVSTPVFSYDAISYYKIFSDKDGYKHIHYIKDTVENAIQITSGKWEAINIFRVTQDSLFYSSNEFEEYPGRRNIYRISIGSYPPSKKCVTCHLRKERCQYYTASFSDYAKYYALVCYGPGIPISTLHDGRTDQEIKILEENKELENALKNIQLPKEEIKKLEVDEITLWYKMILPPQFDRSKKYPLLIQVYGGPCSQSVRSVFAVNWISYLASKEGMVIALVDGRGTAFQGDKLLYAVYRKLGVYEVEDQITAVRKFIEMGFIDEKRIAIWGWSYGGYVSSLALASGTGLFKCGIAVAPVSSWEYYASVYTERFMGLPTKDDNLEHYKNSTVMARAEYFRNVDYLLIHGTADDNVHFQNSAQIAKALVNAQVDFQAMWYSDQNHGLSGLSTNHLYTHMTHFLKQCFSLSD

[2] = target: T2, IL-12 receptor beta 1-biotin (recombinant human IL-12 receptor protein) (human, UniProt P42701 24-545, limits assumed, biotin (site not stated)); assay: ELISA, fusion protein coated in serial dilution, 1 nM IL-12Rβ1-biotin, streptavidin-HRP, OD at 450 nm
T2 construct: Bought reagent; also called IL-12Rβ1-Biotin
Protocol: (§1) (ii) The wells were washed with a wash solution, and then blocking was performed for 1 hour with 1% BSA (Bovine serum albumin, Sigma) solution.
(§2) (iii) The wells were washed with a wash solution, and then treated with 1 nM IL-12 receptor beta 1-biotin (IL-12Rβ1-Biotin; Acrobiosystems, Newark, USA) for 2 hours.
(§3) (iv) The wells were washed with a wash solution, and then treated with streptavidin-HRP for 20 minutes.

[3] = target: T3, human FAP (fibroblast activation protein alpha) overexpressed in HEK293 cells (HEK293-hFAP) (human, UniProt Q12884 1-760); assay: flow cytometry on HEK293-hFAP cells, detection with anti-human IgG antibody
T3 construct: whole, on cells; also called human FAP-expressing cell line
T3 sequence (looked up): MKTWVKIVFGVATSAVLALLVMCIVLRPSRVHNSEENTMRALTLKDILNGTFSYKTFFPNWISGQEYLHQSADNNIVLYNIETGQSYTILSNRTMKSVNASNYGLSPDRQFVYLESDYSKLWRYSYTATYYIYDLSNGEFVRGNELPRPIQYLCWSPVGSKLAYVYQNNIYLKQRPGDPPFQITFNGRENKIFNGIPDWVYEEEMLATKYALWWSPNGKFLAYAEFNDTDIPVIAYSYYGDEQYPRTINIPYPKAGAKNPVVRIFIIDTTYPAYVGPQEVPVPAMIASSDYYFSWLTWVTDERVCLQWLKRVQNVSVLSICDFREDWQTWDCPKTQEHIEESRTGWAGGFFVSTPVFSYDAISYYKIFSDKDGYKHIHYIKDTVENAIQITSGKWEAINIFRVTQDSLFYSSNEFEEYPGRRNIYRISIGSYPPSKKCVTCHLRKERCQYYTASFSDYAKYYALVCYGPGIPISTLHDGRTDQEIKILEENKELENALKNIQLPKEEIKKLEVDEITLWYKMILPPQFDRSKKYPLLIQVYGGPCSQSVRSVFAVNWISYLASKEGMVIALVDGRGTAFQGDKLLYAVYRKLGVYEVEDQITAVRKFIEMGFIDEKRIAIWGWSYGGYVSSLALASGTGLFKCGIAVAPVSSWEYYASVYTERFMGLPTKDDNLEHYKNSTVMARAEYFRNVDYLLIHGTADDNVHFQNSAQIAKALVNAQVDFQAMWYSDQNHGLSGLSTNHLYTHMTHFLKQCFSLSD
Protocol: (§4) Specifically, the cell line was prepared by suspending in a FACS buffer solution at 1×10⁵ cells/100 μl, and treated with 1 μg each of T1.12, T1.01, T1.02 and T1.03. The cells were washed twice with a FACS buffer solution. The cells were stained with an anti-human IgG antibody (Biolegend). The negative control was stained only with an anti-human IgG antibody (Biolegend). The expression rates of the stained cells were measured using BD LSR and analyzed using a FlowJo software.

[4] = target: T3, human FAP (fibroblast activation …); assay: flow cytometry on HEK293-hFAP cells, 1 µg protein per 1x10^5 cells, anti-human IgG detection
Protocol: as §4

[5] = target: IL-12 receptor of human T cells (human, UniProt P42701 24-662; Q99665 24-862); assay: cell-based or functional assay
[6] = target: T2, IL-12 receptor beta 1-biotin …; assay: ELISA, protein coated in serial dilution, 1 nM IL-12Rβ1-biotin, streptavidin-HRP, OD at 450 nm
Protocol: as §1, §2, §3

[7] = target: T1, recombinant human FAP; assay: SPR, fusion protein captured by anti-human IgG (Fc) on a CM5 chip, human FAP as analyte 1.5625-200 nM, 1:1 binding model
Protocol: Specifically, the surface of the CM5 chip was activated with a 1:1 mixture of […] NHS (N-hydroxysuccinimide) and […] EDC (1-Ethyl-3-(3-dimethylaminopropyl) carbodiimide), and 25 μg/ml of anti-human IgG (Fc) antibody was immobilized for 400 seconds at a rate of 10 μl/min. The remaining active ester groups were blocked with 1 M ethanolamine. T1.01, T1.02 and T1.03 were diluted to 2 μg/ml and reacted on the CM5 chip immobilized with the anti-human IgG (Fc) antibody. The recombinant human FAP was diluted to 200 nM in 1×HBS-EP+buffer solution and diluted by serial dilution. The diluted recombinant human FAP was reacted at a rate of 30 μl/min. The association and dissociation times were 180 seconds and 400 seconds, respectively. After the dissociation, stabilization was performed for 60 seconds, and then a regeneration was performed for 30 seconds with a 10 mM glycine pH 1.5 solution at a rate of 30 μl/min.

Chain of IL-12 receptor of human T cells (Q99665 24-862, chain 2 of 2, other chains not shown): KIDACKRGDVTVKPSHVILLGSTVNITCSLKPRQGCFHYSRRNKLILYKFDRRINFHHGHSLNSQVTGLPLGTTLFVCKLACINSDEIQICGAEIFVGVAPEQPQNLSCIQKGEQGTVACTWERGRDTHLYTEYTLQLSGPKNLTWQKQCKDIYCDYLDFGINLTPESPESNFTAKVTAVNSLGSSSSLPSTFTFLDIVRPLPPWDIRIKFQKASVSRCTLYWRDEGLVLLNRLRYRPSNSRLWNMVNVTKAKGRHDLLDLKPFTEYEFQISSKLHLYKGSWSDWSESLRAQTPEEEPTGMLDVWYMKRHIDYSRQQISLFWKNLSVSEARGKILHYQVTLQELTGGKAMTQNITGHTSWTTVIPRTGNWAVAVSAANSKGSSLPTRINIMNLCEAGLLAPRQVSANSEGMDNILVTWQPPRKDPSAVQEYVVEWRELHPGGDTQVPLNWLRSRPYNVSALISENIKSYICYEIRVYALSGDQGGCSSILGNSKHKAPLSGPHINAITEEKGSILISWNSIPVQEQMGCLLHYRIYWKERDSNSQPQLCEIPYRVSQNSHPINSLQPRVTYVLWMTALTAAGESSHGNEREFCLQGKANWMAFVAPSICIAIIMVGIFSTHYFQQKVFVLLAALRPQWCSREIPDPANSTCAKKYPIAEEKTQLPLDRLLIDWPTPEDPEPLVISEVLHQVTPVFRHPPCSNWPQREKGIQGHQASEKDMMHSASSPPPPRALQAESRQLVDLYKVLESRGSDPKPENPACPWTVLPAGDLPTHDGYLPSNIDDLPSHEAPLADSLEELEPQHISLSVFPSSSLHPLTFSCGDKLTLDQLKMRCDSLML

binding result [6]: no binding (tested: 10^5 pM)
percent of cells in the positive gate (hFAP-PE) [3]: 99.3%
percent of cells bound [4]: ≥ 99%
B2: T1.12 (anti-hu FAP/null, hu IgG1 DANG) (antibody)
heavy: QVQLVQSGAEVKKPGASVKVSCKTSRYTFTEYTIHWVRQAPGQRLEWIGGINPNNGIPNYNQKFKGRVTITVDTSASTAYMELSSLRSEDTAVYYCARRRIAYGYDEGHAMDYWGQGTLVTVSSASTKGPSVFPLAPSSKSTSGGTAALGCLVKDYFPEPVTVSWNSGALTSGVHTFPAVLQSSGLYSLSSVVTVPSSSLGTQTYICNVNHKPSNTKVDKKVEPKSCDKTHTCPPCPAPELLGGPSVFLFPPKPKDTLMISRTPEVTCVVVAVSHEDPEVKFNWYVDGVEVHNAKTKPREEQYGSTYRVVSVLTVLHQDWLNGKEYKCKVSNKALPAPIEKTISKAKGQPREPQVYTLPPSRDELTKNQVSLWCLVKGFYPSDIAVEWESNGQPENNYKTTPPVLDSDGSFFLYSKLTVDKSRWQQGNVFSCSVMHEALHNHYTQKSLSLSPGK
light: not shown
chain: not shown
notes: One-armed anti-FAP antibody without IL-12; used as the control for IL-12 activity

Kd [1]: 0.588 nM
koff [1]: 0.000152 s⁻¹
kon [1]: 258000 M⁻¹ s⁻¹
EC50 (read off the curve) [2]: ~20 nM
percent of cells in the positive gate (hFAP-PE) [3]: 99.8%
percent of cells bound [4]: ≥ 99%
fold change of the p-STAT4 EC50 with low molecular weight heparin against without, activated human T cells [5]: 9.4 times
half maximal effective concentration (EC50) of p-STAT4 (Tyr693), AlphaLISA, activated human T cells [5]: 0.0145 nM
B4: T1.01 (anti-hu FAP/hu IL-12, hu IgG1 DANG) (bispecific antibody)
heavy: B2 heavy
light: not shown
chain: not shown
notes: Knob-in-hole heterodimer: one anti-FAP Fab arm and one single-chain human IL-12 (p40-linker-p35) Fc arm

Second part, the binder before the results:

B1: T1.02 (anti-hu FAP/hu IL-12 mut1, hu IgG1 DANG) (bispecific antibody)
heavy: B2 heavy
light: not shown
chain: not shown
notes: Knob-in-hole heterodimer
Kd [1]: 0.595 nM
koff [1]: 0.000139 s⁻¹
kon [1]: 235000 M⁻¹ s⁻¹
EC50 (read off the curve) [2]: ~20 nM
percent of cells in the positive gate (hFAP-PE) [3]: 99.8%
percent of cells bound [4]: ≥ 99%
fold change of the p-STAT4 EC50 with low molecular weight heparin against without, activated human T cells [5]: 5.5 times
half maximal effective concentration (EC50) of p-STAT4 (Tyr693), AlphaLISA, activated human T cells [5]: 0.0565 nM

B3: T1.03 (anti-hu FAP/hu IL-12 mut2, hu IgG1 DANG) (bispecific antibody)
heavy: B2 heavy
light: not shown
chain: not shown
notes: Knob-in-hole heterodimer
EC50 (read off the curve) [2]: ~20 nM
percent of cells in the positive gate (hFAP-PE) [3]: 99.3%
percent of cells bound [4]: ≥ 99%
fold change of the p-STAT4 EC50 with low molecular weight heparin against without, activated human T cells [5]: 4 times
half maximal effective concentration (EC50) of p-STAT4 (Tyr693), AlphaLISA, activated human T cells [5]: 0.147 nM
Kd [7]: 1.3 nM
koff [7]: 0.000124 s⁻¹
kon [7]: 94900 M⁻¹ s⁻¹
